No end group written: not given here.
T1: BRAF V600E peptide (biotinylated synthetic peptide including the amino acids of and surrounding the BRAF … (also: biotinylated (position not given here)))
T1 peptide: GLATEKSRWSG


How the values were obtained:
[1] = target: BRAF in colorectal cancer specimens with V600E mutation status: negative (human) (UniProt P15056); test: IHC, FLEX++ Dako OMNIS, CRC block 10 BRAF-, V600E mutation status negative (clinical status Equivocal/Negative)
[2] = target: BRAF in colorectal cancer specimens with V600E mutation status: negative (human) (UniProt P15056); test: IHC, FLEX++ Dako OMNIS, CRC block 6 BRAF-, V600E mutation status negative
[3] = target: BRAF in colorectal cancer specimens with V600E mutation status: negative (human) (UniProt P15056); test: IHC, FLEX++ Dako OMNIS, CRC block BRAF- (slide 51), V600E mutation status negative; set-up: scale not given here
[4] = target: BRAF in colorectal cancer specimens with V600E mutation status: negative (human) (UniProt P15056); test: IHC, FLEX++ Dako OMNIS, CRC block 7 BRAF-, V600E mutation status negative
[5] = target: BRAF in colorectal cancer specimens with V600E mutation status: negative (human) (UniProt P15056); test: IHC, FLEX++ Dako OMNIS, CRC block 9 BRAF-, V600E mutation status negative
[6] = target: BRAF in colorectal cancer specimens with V600E mutation status: negative (human) (UniProt P15056); test: IHC, FLEX++ Dako OMNIS, CRC block 8 BRAF-, V600E mutation status negative
[7] = target: BRAF in colorectal cancer specimens with V600E mutation status: negative (human) (UniProt P15056); test: IHC, FLEX++ Dako OMNIS, CRC block BRAF- (slide 52), V600E mutation status negative
[8] = target: T1, BRAF V600E peptide (biotinylated …); test: BLI

Binder | Tumor cells staining intensity [1] | Tumor cells staining intensity [2] | Tumor cells staining intensity [3] | Tumor cells staining intensity [4] | Tumor cells staining intensity [5] | Tumor cells staining intensity [6] | Tumor cells staining intensity [7] | Kd [8] [pM]
chimeric BRAF V600E antibody (mouse variable domains, rabbit IgG heavy chain and rabbit kappa1 light chain constant domains; heavy chain SEQ ID NO:2 and light … (antibody, V domains shown) VH: QAYLQQSGAELVRPGASVKMSCKASGYTFTSYNMHWIKQTPRQGLEWIGAIYPGNGDTSYNQKFKGKATLTVDRSSNTAYMQLSSLTSEDSAVYFCARDGISPWGQGTLVTVSS VL: DIKMTQSPSSMYASLGERVTITCKASQDINRYLSWFQQKPGKSPKTLIYRANRVLDGVPSRFSGSGSGQDYSLTISSLESEDMGIYYCLHYDEYPYTYGGGTKLEIKG | 0.25 | 0.125 | 0.125 | 0.125 | 0.125 | 0 | 0.125 | 5.05
recombinant mouse anti-human BRAF V600E antibody (mouse IgG2a heavy chain, mouse kappa1 light chain) (antibody, V domains shown) VH: QAYLQQSGAELVRPGASVKMSCKASGYTFTSYNMHWIKQTPRQGLEWIGAIYPGNGDTSYNQKFKGKATLTVDRSSNTAYMQLSSLTSEDSAVYFCARDGISPWGQGTLVTVSS VL: DIKMTQSPSSMYASLGERVTITCKASQDINRYLSWFQQKPGKSPKTLIYRANRVLDGVPSRFSGSGSGQDYSLTISSLESEDMGIYYCLHYDEYPYTYGGGTKLEIK | – | – | – | – | – | – | – | 4.86

— patent US20230416400A1 (published 2023)
